Laboratory results published in the supplement of paper PMC6379048.

Assays:
Test in all cases: Kd (EC50 corrected by depletion factor)
MRPS31 = MRPS31 (UniProt Q92665)
In short: (§1)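 HEK293-FT lysate (2.5 mg protein/well) was treated with free RNA oligos (0 nM to 30 μM) for 1 h at 4°C, then with the same oligos on NHS-Sepharose beads for 30 min at 4°C. Bound proteins were quantified by label-free LC-MS/MS relative to the control. EC50 came from a four-parameter log-logistic fit, and Kd is EC50 times a protein-dependent depletion factor.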

PPIE = PPIE (UniProt Q9UNP9)
Chain of PPIE (Q9UNP9 whole entry): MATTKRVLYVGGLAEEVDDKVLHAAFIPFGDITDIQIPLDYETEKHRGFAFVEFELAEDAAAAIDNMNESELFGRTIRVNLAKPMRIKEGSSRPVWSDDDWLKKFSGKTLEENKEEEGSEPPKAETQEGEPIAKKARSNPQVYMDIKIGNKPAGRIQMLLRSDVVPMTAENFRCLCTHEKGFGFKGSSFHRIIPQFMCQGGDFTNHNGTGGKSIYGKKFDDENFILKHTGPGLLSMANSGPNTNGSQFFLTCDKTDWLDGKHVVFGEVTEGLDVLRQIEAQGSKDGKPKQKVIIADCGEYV
In short: as §1

MRPL14 = MRPL14 (UniProt Q6P1L8)
In short: as §1

MRPL19 = MRPL19 (UniProt P49406)
In short: as §1

MRPL22 = MRPL22 (UniProt Q9NWU5)
In short: as §1

YTHDC2 = target: T1, YTHDC2 (UniProt Q9H6S0)
T1 sequence: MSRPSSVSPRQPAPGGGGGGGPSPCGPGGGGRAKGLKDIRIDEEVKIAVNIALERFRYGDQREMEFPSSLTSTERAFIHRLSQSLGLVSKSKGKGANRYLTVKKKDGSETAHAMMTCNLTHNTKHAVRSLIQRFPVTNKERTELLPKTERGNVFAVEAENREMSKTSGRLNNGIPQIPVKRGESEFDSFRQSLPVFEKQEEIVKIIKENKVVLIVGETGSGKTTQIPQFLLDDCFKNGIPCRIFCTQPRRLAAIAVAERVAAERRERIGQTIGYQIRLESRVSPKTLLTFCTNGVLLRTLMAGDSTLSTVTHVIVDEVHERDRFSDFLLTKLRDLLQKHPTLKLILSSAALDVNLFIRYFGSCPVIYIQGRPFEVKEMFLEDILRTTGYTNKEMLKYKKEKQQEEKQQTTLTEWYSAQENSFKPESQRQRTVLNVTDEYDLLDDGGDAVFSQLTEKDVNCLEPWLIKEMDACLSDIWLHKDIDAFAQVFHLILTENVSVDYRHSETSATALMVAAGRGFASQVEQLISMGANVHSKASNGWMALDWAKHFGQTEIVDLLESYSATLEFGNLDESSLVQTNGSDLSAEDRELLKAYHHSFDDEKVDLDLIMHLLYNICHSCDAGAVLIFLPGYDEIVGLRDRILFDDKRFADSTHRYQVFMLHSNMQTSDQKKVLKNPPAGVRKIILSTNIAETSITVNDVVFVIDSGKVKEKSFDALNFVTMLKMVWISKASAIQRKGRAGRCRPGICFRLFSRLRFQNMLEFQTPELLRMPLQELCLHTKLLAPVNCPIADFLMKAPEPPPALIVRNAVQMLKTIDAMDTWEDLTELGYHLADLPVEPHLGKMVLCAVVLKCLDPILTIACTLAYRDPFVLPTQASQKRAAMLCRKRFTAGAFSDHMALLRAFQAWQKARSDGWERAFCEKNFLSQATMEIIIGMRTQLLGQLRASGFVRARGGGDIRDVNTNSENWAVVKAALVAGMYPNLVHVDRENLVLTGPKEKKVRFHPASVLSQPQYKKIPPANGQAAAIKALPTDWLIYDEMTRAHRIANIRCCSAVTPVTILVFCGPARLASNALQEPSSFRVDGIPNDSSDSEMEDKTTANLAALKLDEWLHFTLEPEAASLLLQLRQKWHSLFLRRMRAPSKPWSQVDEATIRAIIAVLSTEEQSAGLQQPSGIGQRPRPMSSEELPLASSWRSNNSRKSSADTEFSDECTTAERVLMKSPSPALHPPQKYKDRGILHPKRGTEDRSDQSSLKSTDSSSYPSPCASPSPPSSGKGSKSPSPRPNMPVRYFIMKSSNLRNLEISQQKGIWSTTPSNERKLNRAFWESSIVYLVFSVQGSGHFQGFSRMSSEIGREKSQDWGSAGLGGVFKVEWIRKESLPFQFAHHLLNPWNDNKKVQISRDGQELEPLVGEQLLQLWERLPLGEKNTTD
In short: as §1

HNRNPF = target: T2, HNRNPF (UniProt P52597)
T2 sequence: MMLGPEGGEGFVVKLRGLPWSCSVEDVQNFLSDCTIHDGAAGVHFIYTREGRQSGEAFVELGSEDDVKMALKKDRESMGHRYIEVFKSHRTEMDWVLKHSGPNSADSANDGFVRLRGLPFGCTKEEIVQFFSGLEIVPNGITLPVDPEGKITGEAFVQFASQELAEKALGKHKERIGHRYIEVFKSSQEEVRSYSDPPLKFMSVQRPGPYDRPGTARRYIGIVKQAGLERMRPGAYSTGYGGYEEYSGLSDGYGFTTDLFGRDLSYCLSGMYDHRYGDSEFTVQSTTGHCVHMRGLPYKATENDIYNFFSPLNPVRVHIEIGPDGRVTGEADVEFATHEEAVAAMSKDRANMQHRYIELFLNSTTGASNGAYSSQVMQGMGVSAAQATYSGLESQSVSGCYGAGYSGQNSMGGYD
In short: as §1

Sequence UAUUUAU has a Kd (MRPS31) of 52.4 nM and a Kd (PPIE) of 205 nM.

In the case of CUGUCCU, the Kd (MRPL14) is reported as 53.5 nM, the Kd (MRPL19) is reported as 54.1 nM and the Kd (MRPL22) is reported as 67.4 nM. The Kd (YTHDC2) was 986 nM.

In the case of AAUAAA, the Kd (HNRNPF) is reported as 6290 nM.
